# Test results reported in patent US7217548B2, “N-acetylglucosaminlytransferase and polynucleotide encoding the same” (National Institute of Advanced Industrial Science and …, priority 2000, dated 2007).
# B1: His-Xpress-sOMGnT(S) (Homo sapiens; M623V) (protein)
# chain: SSAEEAECHWADTELNRRRRRFCSKVEGYGSVCSCKDPTPIEFSPDPLPDNKVLNVPVAVIAGNRPNYLYRMLRSLLSAQGVSPQMITVFIDGYYEEPMDVVALFGLRGIQHTPISIKNARVSQHYKASLTATFNLFPEAKFAVVLEEDLDIAVDFFSFLSQSIHLLEEDDSLYCISAWNDQGYEHTAEDPALLYRVETMPGLGWVLRRSLYKEELEPKWPTPEKLWDWDMWMRMPEQRRGRECIIPDVSRSYHFGIVGLNMNGYFHEAYFKKHKFNTVPGVQLRNVDSLKKEAYEVEVHRLLSEAEVLDHSKNPCEDSFLPDTEGHTYVAFIRMEKDDDFTTWTQLAKCLHIWDLDVRGNHRGLWRLFRKKNHFLVVGVPASPYSVKKPPSVTPIFLEPPPKEEGAPGAPEQT
# notes: Ig kappa chain secretory signal (N); made in house; host or cells: HEK293T (transient, secreted into serum-free medium)
# Substrate: CC(=O)N[C@@H](C)C(=O)N[C@@H](C)C(=O)N1CCC[C@H]1C(=O)N[C@H](C(=O)N1CCC[C@H]1C(=O)N[C@H](C(=O)N[C@@H](C)C(=O)N[C@@H](C)C(=O)N1CCC[C@H]1C(N)=O)C(C)C)[C@@H](C)O[C@H]1O[C@H](CO)[C@@H](O)[C@H](O)[C@@H]1O
# Assay: Substrate specificity and kinetic parameters of solubilized human OMGnT enzyme (S)
# Type: biochemical
# Conditions: other: 125 mM MOPS pH7.3, 0.2 mM UDP-GlcNAc, 7.5 mM MnCl2, 37° C., 2 hours, pH 7.3
# Method: […] […] The reaction mixture was then filtered with a filter Ultrafree-MC (Millipore) having a pore size of 0.22 μm to remove solids, and analyzed by Wakopak 5C18-200 column (4.6×250 mm, Wako Pure Chemical Industries, Ltd.). The separation was carried out using concentration gradient with Solution A and Solution B at a flow rate of 1.0 ml/min. […] Peptide detection was carried out at 214 nm, and the radioactivity of each fraction was assayed using a liquid scintillation counter.
# The activity of GnT-1 was assayed with a method by Yoshida et al. [Yoshida, S., Suzuki, M., Yamano, S., Takeuchi, M., Ikenaga, H., Kioka, N., Sakai, H., and Komano, T., Glycobiology, (1999), 9, 53–58] as described below. A 20 μl reaction solution was prepared by adding an enzyme source thereto so as to have a final concentration of 100 mM MES (pH 6.0), 20 mM MnCl2, 5 μM Manα1–6(Manα1–3)Manα1–6(Manα1–3)Manβ1–4GlcNAcβ1–4GlcNAc-PA(M5GN2-PA; Takara Shuzo, PA-Sugar Chain 017), 1 mM UDP-GlcNAc, 100 mM GlcNAc, 5 mM AMP, 1% Triton X-100, and 0.2% BSA. The reaction solution was incubated at 37° C. for 1 hour, and the reaction was terminated in boiling water. Thereafter, the reaction solution was analyzed by a reverse phase HPLC (Cosmosil 5C18-AR column) available from Nacalai Tesque. […]
protein,measurement,value
B1,Km,1360 µM
